Reference: the MegaScale stability set (Tsuboyama et al. 2023)

B1: 2M8U (parent)
chain: TKAQVIEAFKVFDRDGNGYVTVDYLRKVLNELGDMMPADEIEEMIYEADPQNSGYVQYETFVGMLFL

Variants of: B1
Assay: folding stability dG (cDNA display proteolysis); higher = more stable
Details: PBS, room temperature
In the case of TKAQVIEAFKVFDRDGNGYVTVDYLRKVLNELGDMMPADEIEEMIYEADPQNSGYVQYLTFVGMLFL, the “folding stability dG” value is reported as 3.47 kcal/mol.
With TKAQVIEAFKVFDRDGNGYVTVDYLRKVLNELGDMMPADEIEEMIYEADPQNSGYVQYGTFVGMLFL the “folding stability dG” value was 2.76 kcal/mol.
For TKAQVIEAFKVFDRDGNGYVTVDYLRKVLNELGDMMPADEIEEMIYEADPQNSGYVQYMTFVGMLFL, the “folding stability dG” value was 3.93 kcal/mol.
With TKAQVIEAFKVFDRDGNGYVTVDYLRKVLNELGDMMPADEIEEMIYEADPQNSGYVQYDTFVGMLFL the “folding stability dG” value was 2.99 kcal/mol.
With TKAQVIEAFKVFDRDGNGYVTVDYLRKVLNELGDMMPADEIEEMIYEADPQNSGYVQYCTFVGMLFL the “folding stability dG” value was 3.25 kcal/mol.
In the case of TKAQVIEAFKVFDRDGNGYVTVDYLRKVLNELGDMMPADEIEEMIYEADPQNSGYVQYKTFVGMLFL, the “folding stability dG” value is reported as 3.23 kcal/mol.
In the case of TKAQVIEAFKVFDRDGNGYVTVDYLRKVLNELGDMMPADEIEEMIYEADPQNSGYVQYITFVGMLFL, the “folding stability dG” value is reported as 3.41 kcal/mol.
With TKAQVIEAFKVFDRDGNGYVTVDYLRKVLNELGDMMPADEIEEMIYEADPQNSGYVQYFTFVGMLFL the “folding stability dG” value was 3.54 kcal/mol.
With TKAQVIEAFKVFDRDGNGYVTVDYLRKVLNELGDMMPADEIEEMIYEADPQNSGYVQYATFVGMLFL the “folding stability dG” value was 3.15 kcal/mol.
For TKAQVIEAFKVFDRDGNGYVTVDYLRKVLNELGDMMPADEIEEMIYEADPQNSGYVQYHTFVGMLFL, the “folding stability dG” value was 3.24 kcal/mol.
For TKAQVIEAFKVFDRDGNGYVTVDYLRKVLNELGDMMPADEIEEMIYEADPQNSGYVNYETFVGMLFL, the “folding stability dG” value was 3.61 kcal/mol.
With TKAQVIEAFKVFDRDGNGYVTVDYLRKVLNELGDMMPADEIEEMIYEADPQNSGYVMYETFVGMLFL the “folding stability dG” value was 3.27 kcal/mol.
With TKAQVIEAFKVFDRDGNGYVTVDYLRKVLNELGDMMPADEIEEMIYEADPQNSGYVRYETFVGMLFL the “folding stability dG” value was 3.13 kcal/mol.
For TKAQVIEAFKVFDRDGNGYVTVDYLRKVLNELGDMMPADEIEEMIYEADPQNSGYVLYETFVGMLFL, the “folding stability dG” value was 3.08 kcal/mol.
With TKAQVIEAFKVFDRDGNGYVTVDYLRKVLNELGDMMPADEIEEMIYEADPQNSGYVKYETFVGMLFL the “folding stability dG” value was 3.2 kcal/mol.
In the case of TKAQVIEAFKVFDRDGNGYVTVDYLRKVLNELGDMMPADEIEEMIYEADPQNSGYVYYETFVGMLFL, the “folding stability dG” value is reported as 3.51 kcal/mol.
In the case of TKAQVIEAFKVFDRDGNGYVTVDYLRKVLNELGDMMPADEIEEMIYEADPQNSGYVTYETFVGMLFL, the “folding stability dG” value is reported as 2.41 kcal/mol.
For TKAQVIEAFKVFDRDGNGYVTVDYLRKVLNELGDMMPADEIEEMIYEADPQNSGYVPYETFVGMLFL, the “folding stability dG” value was 2.64 kcal/mol.
With TKAQVIEAFKVFDRDGNGYVTVDYLRKVLNELGDMMPADEIEEMIYEADPQNSGYVWYETFVGMLFL the “folding stability dG” value was 3.18 kcal/mol.
For TKAQVIEAFKVFDRDGNGYVTVDYLRKVLNELGDMMPADEIEEMIYEADPQNSGYVSYETFVGMLFL, the “folding stability dG” value was 2.71 kcal/mol.
For TKAQVIEAFKVFDRDGNGYVTVDYLRKVLNELGDMMPADEIEEMIYEADPQNSGYVVYETFVGMLFL, the “folding stability dG” value was 3.1 kcal/mol.
In the case of TKAQVIEAFKVFDRDGNGYVTVDYLRKVLNELGDMMPADEIEEMIYEADPQNSGYVQCETFVGMLFL, the “folding stability dG” value is reported as 2.07 kcal/mol.
For TKAQVIEAFKVFDRDGNGYVTVDYLRKVLNELGDMMPADEIEEMIYEADPQNSGYVQTETFVGMLFL, the “folding stability dG” value was 2.02 kcal/mol.
With TKAQVIEAFKVFDRDGNGYVTVDYLRKVLNELGDMMPADEIEEMIYEADPQNSGYVQIETFVGMLFL the “folding stability dG” value was 3.25 kcal/mol.
In the case of TKAQVIEAFKVFDRDGNGYVTVDYLRKVLNELGDMMPADEIEEMIYEADPQNSGYVQLETFVGMLFL, the “folding stability dG” value is reported as 2.51 kcal/mol.
With TKAQVIEAFKVFDRDGNGYVTVDYLRKVLNELGDMMPADEIEEMIYEADPQNSGYVQKETFVGMLFL the “folding stability dG” value was 1.56 kcal/mol.
In the case of TKAQVIEAFKVFDRDGNGYVTVDYLRKVLNELGDMMPADEIEEMIYEADPQNSGYVQAETFVGMLFL, the “folding stability dG” value is reported as 2.11 kcal/mol.
In the case of TKAQVIEAFKVFDRDGNGYVTVDYLRKVLNELGDMMPADEIEEMIYEADPQNSGYVQRETFVGMLFL, the “folding stability dG” value is reported as 1.77 kcal/mol.
In the case of TKAQVIEAFKVFDRDGNGYVTVDYLRKVLNELGDMMPADEIEEMIYEADPQNSGYVQFETFVGMLFL, the “folding stability dG” value is reported as 2.81 kcal/mol.
With TKAQVIEAFKVFDRDGNGYVTVDYLRKVLNELGDMMPADEIEEMIYEADPQNSGYVQMETFVGMLFL the “folding stability dG” value was 2.46 kcal/mol.
For TKAQVIEAFKVFDRDGNGYVTVDYLRKVLNELGDMMPADEIEEMIYEADPQNSGYVQSETFVGMLFL, the “folding stability dG” value was 2.04 kcal/mol.
In the case of TKAQVIEAFKVFDRDGNGYVTVDYLRKVLNELGDMMPADEIEEMIYEADPQNSGYVQPETFVGMLFL, the “folding stability dG” value is reported as 1.71 kcal/mol.
For TKAQVIEAFKVFDRDGNGYVTVDYLRKVLNELGDMMPADEIEEMIYEADPQNSGYVQHETFVGMLFL, the “folding stability dG” value was 1.99 kcal/mol.
In the case of TKAQVIEAFKVFDRDGNGYVTVDYLRKVLNELGDMMPADEIEEMIYEADPQNSGYVQQETFVGMLFL, the “folding stability dG” value is reported as 1.77 kcal/mol.
In the case of TKAQVIEAFKVFDRDGNGYVTVDYLRKVLNELGDMMPADEIEEMIYEADPQNSGYVQDETFVGMLFL, the “folding stability dG” value is reported as 1.3 kcal/mol.
In the case of TKAQVIEAFKVFDRDGNGYVTVDYLRKVLNELGDMMPADEIEEMIYEADPQNSGYVQWETFVGMLFL, the “folding stability dG” value is reported as 3.45 kcal/mol.
For TKAQVIEAFKVFDRDGNGYVTVDYLRKVLNELGDMMPADEIEEMIYEADPQNSGYVQNETFVGMLFL, the “folding stability dG” value was 1.27 kcal/mol.
With TKAQVIEAFKVFDRDGNGYVTVDYLRKVLNELGDMMPADEIEEMIYEADPQNSGYVQGETFVGMLFL the “folding stability dG” value was 1.62 kcal/mol.
For TKAQVIEAFKVFDRDGNGYVTVDYLRKVLNELGDMMPADEIEEMIYEADPQNSGYVQVETFVGMLFL, the “folding stability dG” value was 2.67 kcal/mol.
With TKAQVIEAFKVFDRDGNGYVTVDYLRKVLNELGDMMPADEIEEMIYEADPQNSGYVQEETFVGMLFL the “folding stability dG” value was 1.4 kcal/mol.
